The record followed here is patent publication US20170247475A1 (Boehringer Ingelheim, published 2017).

In one experiment the target is T1, human PIGF (human, UniProt P49763-2 21-149, limits assumed).
T1 construct: also called hPIGF; PLGF
T1 sequence (looked up): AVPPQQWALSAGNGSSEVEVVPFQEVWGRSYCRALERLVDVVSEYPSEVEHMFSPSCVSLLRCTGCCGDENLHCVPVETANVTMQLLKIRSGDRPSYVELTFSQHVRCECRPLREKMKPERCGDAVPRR
Briefly: solid phase binding ELISA. On the procedure: (§1) Binding to VEGFB, VEGFC, VEGFD and PIGF is assessed via a solid phase binding ELISA. In brief, VEGFB, VEGFC, VEGFD and PIGF (R&D Systems, Minneapolis, Minn., USA) are coated overnight at 4° C. at 1 μg/mL in a 96-well MaxiSorp plate (Nunc, Wiesbaden, Germany). Wells are blocked with a casein solution (1% in PBS). […] As positive controls serial dilutions of the appropriate receptors are taken along and detected with horseradish peroxidase (HRP)-conjugated goat anti-human IgG, Fc specific antibody (Jackson Immuno Research Laboratories Inc., West Grove, Pa., USA) and a subsequent enzymatic reaction in the presence of the substrate TMB (3,3′,5,5′-tetramentylbenzidine) (Pierce, Rockford, Ill., USA).

Another experiment addresses T2, human VEGF-B (human, UniProt P49765-2 22-188, limits assumed).
T2 construct: also called hVEGF-B
T2 sequence (looked up): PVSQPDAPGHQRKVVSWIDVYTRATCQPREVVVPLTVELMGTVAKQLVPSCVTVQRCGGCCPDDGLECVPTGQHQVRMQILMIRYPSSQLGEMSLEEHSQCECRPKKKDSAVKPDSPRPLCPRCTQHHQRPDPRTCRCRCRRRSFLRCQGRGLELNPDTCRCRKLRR
In words: solid phase binding ELISA. On the procedure: as §1

Another experiment has as its target T3, human VEGF-C (human, UniProt P49767 103-227).
T3 construct: also called hVEGF-C
T3 sequence (looked up): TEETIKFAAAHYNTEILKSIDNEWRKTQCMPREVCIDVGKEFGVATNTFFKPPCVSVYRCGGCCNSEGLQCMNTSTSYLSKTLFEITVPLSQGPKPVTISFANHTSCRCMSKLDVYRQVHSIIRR
Briefly: solid phase binding ELISA. As to the method:
as §1

For a further experiment, the target named is T4, human VEGF-D (human, UniProt O43915 93-201).
T4 construct: also called hVEGF-D
T4 sequence (looked up): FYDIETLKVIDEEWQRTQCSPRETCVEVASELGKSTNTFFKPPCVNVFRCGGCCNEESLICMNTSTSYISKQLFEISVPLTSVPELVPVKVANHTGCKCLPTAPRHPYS
In words: solid phase binding ELISA. On the procedure: as §1

The target in experiment [1] is T5, recombinant human VEGF165 (human, UniProt P15692-4 27-191).
T5 construct: also called hVEGF165; rhVEGF165
Briefly: hVEGF165/hVEGFR2-Fc competition ELISA.
Target sequence in this assay (P15692 other isoform, or with tags, fused parts or gaps limits assumed): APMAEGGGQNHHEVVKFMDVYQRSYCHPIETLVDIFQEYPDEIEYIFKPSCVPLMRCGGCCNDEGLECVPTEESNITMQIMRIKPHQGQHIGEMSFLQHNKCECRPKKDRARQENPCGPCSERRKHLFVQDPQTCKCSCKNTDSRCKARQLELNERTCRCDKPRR

Experiment [2] addresses T5, recombinant human VEGF165. In words: hVEGF165/hVEGFR1-Fc competition AlphaScreen. On the procedure:
Finally, streptavidin donor beads (20 μg/ml) are added and after 1 hour of incubation in the dark, fluorescence is measured on the Envision microplate reader.
Target sequence in this assay (P15692 other isoform, or with tags, fused parts or gaps limits assumed): as above

Experiment [3] concerns the target T5, recombinant human VEGF165. In words: SPR Biacore T100, hVEGF165 on chip, Two State Reaction model. On the procedure: Samples are injected for 2 min and allowed to dissociate up to 20 min at a flow rate of 45 μI/min. In between sample injections, the chip surface is regenerated with 100 mM HCl. HBS-EP+(Hepes buffer pH7.4+EDTA) is used as running buffer. Binding curves are fitted using a Two State Reaction model by Biacore T100 Evaluation Software v2.0.1.
^{(a)}Heterogeneous binding curve resulting in no 1:1 fit, curves are fitted using a Two State Reaction model by Biacore T100 Evaluation Software v2.0.1
Target sequence in this assay (P15692 other isoform, or with tags, fused parts or gaps limits assumed): as above

Experiment [4] addresses T5, recombinant human VEGF165. Briefly: kd1; SPR Biacore T100 on hVEGF165.
Target sequence in this assay (P15692 other isoform, or with tags, fused parts or gaps limits assumed): as above
In experiment [5] the target is T5, recombinant human VEGF165. In words: competition AlphaScreen, blocking of hVEGF165 binding to hVEGFR1-Fc.
Experiment [6] addresses T5, recombinant human VEGF165. In words: AlphaScreen competition, 0.05 nM hVEGF165 and 0.05 nM hVEGFR2-Fc; blocked: hVEGFR2-Fc.
The target of experiment [7] is T5, recombinant human VEGF165. The experiment is described as above. This is another data set of the same source.
Target sequence in this assay (P15692 other isoform, or with tags, fused parts or gaps limits assumed): as above
The target in experiment [8] is T5, recombinant human VEGF165. The experiment is described as above. The source holds these as a separate data set.
Target sequence in this assay (P15692 other isoform, or with tags, fused parts or gaps limits assumed): as above

Where a chain is given by its changes, count along the chain named.

B1: VEGFBII23B04 (VHH)
VHH: EVQLVESGGGLVQTGDSLRLSCEVSGRTFSSYSMGWFRQAQGKEREFVVAISKGGYKYDSVSLEGRFTISKDNAKNTVYLQINSLKPEDTAVYYCASSRAYGSSRLRLADTYEYWGQGTQVTVSS
notes: also called VEGFBII23B4; VEGFBII23B04 (wt)
Take B1: the binding result in the experiment with human PIGF, in the experiment with human VEGF-B, with human VEGF-C and with human VEGF-D was “no binding (tested: 500 nM-32 pM)” each time. The “% inhibition” value in [1] came out at 100%; in experiment [2] it was 41%. The values for the IC50 in [1] and in [2] were 2.1 nM and 0.9 nM, respectively. Further, in [3], the Kd stood at 0.7 nM. Further, the kd2 in experiment [3] was 0.00024 s⁻¹.

B2: VEGFBII038 (VHH)
VHH: B1 VHH with E1D, T14P, D16G, E23A, V24A, Q41P, S60A, K71R, K86R, Q120L
notes: also called VEGFBII0038; VEGFBII00038
B2: the koff in experiment [4] worked out at 0.013 s⁻¹. Also, the “IC50 (read off the curve)” value in experiment [5] was around 0.4 nM; in [6], around 0.4 nM; in experiment [7] it was around 0.4 nM; in [8] it was around 0.5 nM.
